Columns and labels:
[1] = target: T1, yeast displayed EphA2 extracellular domain (EphA2 ECD, aa 25-534) (Homo sapiens (Human), UniProt P29317 25-534); assay: fd phage antibody selected on yeast displayed antigen; screened by flow cytometry as in Examples 4 and 5
T1 construct: also called Y-EphA2; Y-EphA2 ECD

[2] = target: T2, EphA2 on the surface of MDAMB231 cells (native EphA2) (human, UniProt P29317 24-976); assay: flow cytometry of phage antibody on MDAMB231 cells
T2 construct: whole, on cells; from NP40 cell extracts in the immunoprecipitation; also called native antigen; receptor from cell extracts of MDAMB231 cells

[3] = target: T1, yeast displayed EphA2 extracellular …; assay: flow cytometry of monoclonal phage antibody on yeast displayed EphA2 ECD
[4] = target: T1, yeast displayed EphA2 extracellular …; assay: phagemid antibody selected on yeast displayed antigen; screened by flow cytometry as in Examples 4 and 5
[5] = target: T3, yeast displayed CD44 link domain (CD44 ECD domain 1, aa 21-169) (Homo sapiens (Human), UniProt P16070 21-169); assay: flow cytometry of monoclonal phage antibody on yeast displayed CD44 domain 1
T3 construct: also called Y-CD44 D1; Y-CD44 ECD D1

[6] = target: T1, yeast displayed EphA2 extracellular …; assay: phage recovery: 10^11 phage with 10^8 yeast cells, elution and titration
[7] = target: T1, yeast displayed EphA2 extracellular …; assay: yeast displayed antigen incubated with 10^9 phage, titer of bound phage
[8] = target: T3, yeast displayed CD44 link domain (CD44 …); assay: yeast displayed antigen incubated with 10^9 phage, titer of bound phage (mismatched pair)
[9] = target: T3, yeast displayed CD44 link domain (CD44 …); assay: fd phage antibody selected on yeast displayed antigen; screened by flow cytometry as in Examples 4 and 5
[10] = target: T2, EphA2 on the surface of MDAMB231 cells …; assay: flow cytometry competition on MDAMB231 cells; competitors: phage antibodies D2-1A7 and D2-1A9

T3 sequence (P16070 21-169 limits assumed): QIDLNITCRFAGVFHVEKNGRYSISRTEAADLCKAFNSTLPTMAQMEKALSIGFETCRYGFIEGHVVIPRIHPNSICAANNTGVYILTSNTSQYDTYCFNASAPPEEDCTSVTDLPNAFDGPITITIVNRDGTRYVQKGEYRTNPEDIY
T1 sequence (P29317 25-534 limits assumed): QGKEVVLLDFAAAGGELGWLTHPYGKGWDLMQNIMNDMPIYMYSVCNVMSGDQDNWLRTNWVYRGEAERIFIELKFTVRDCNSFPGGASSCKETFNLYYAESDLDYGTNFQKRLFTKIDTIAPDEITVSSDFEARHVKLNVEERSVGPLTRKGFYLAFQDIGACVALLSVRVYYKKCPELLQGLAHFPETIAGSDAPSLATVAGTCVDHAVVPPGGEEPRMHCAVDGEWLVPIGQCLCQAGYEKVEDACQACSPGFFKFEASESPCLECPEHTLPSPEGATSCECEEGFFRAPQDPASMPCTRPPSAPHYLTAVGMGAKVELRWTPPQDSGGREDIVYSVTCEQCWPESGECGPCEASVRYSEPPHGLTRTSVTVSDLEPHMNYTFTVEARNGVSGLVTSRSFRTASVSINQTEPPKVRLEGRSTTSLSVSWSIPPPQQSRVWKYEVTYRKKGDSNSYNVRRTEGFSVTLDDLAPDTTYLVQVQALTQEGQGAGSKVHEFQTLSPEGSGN
T2 sequence (P29317 24-976): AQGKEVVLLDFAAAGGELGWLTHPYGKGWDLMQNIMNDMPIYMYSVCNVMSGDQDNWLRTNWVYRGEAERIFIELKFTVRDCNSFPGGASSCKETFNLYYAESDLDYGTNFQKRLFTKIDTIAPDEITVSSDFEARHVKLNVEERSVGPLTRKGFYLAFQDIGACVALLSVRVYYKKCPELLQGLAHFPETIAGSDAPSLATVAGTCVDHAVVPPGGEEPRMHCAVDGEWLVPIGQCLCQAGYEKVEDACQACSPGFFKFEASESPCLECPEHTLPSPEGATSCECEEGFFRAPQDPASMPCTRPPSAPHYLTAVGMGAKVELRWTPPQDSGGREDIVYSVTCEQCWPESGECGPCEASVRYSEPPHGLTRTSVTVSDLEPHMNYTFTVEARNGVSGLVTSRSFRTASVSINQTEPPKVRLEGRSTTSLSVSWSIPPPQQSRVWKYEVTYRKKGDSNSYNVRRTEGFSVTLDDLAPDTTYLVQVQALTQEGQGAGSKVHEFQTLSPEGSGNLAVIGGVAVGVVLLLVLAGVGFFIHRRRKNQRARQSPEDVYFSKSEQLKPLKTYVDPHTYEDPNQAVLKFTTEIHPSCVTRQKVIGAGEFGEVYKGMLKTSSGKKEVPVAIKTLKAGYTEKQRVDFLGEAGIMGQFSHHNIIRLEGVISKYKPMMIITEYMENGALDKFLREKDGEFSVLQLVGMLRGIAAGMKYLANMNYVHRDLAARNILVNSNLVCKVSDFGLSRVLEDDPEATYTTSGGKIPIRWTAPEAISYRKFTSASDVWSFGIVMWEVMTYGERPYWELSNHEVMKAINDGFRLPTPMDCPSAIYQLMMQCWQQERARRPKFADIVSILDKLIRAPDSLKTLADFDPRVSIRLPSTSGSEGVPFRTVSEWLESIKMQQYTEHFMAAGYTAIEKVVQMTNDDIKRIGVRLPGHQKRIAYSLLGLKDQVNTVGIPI

B1: A3H9 (scFv)
scFv: QVLLVESGGGVVQAGASLRVSCAASGFSLTSYGMHWVRQAPGKGLEWVAFISSDGSDKYYVDSVKGRFTISRDTSKNMMYLQMNSLTTEDTAVYYCAKDWGSNWYLFDYWGQGTLVTVSSGGGGSGGGGSGGGGSQSVLTQPPSASETPGQRVTISCSGSSSNIGANTVHWYQQFPGTAPKLLIYSYSQRPSGVPDRFSDSKSGTSASLAISGLQSEDEADYYCAAWDDILNGWVFGGGTKVTVLG
notes: also called fd phage antibody A3H9
B1: binds [1].

B2: anti-EphA2 human scFv D2-1A9 (scFv, V domains shown)
VH: QVQLVESGGGLIQPGGSLKLSCAASGFTVSNSYMSWVRQAPGKGLEWVAVIYSAGNTYYADSVKGRFTISRDTSNNTVHLQMNSLRPEDTAVYYCAREGSFGYDYRGQGTLVTVSS
VL: DIVMTQSPGTLSLSPGERATLSCRASQSVSSSFLGWYQQKPGQAPRLLIYGASSRATGIPDRFSGSGSGTDFTLTISRLEPEDFAVYYCQQYGISPLTFGGGTKVEIKR
notes: also called anti-EphA2 phage D2-1A9
B2: binds [2]; binds [3].

B3: 1A12 (scFv)
scFv: QVQLQESGGGLVQPGGFLRLSCAASGFTFSSYGMHWVRQTPGKGLEWVSYISSSSSYTNYADSVKGRFTISRDNSKNTLYLQMNSLRAEDTAVYYCARDNWYFDLWGRGTLVTVSSGGGGSGGGGSGGGGSDVVMTQSPSTLSASVGDRVSITCRASESISRWLAWYQQKPGKAPKALIYKASSLESGVPSRFSGSGSATEFTLTINSLQPDDFATYYCQQYSSYPLTFGQGTKVDIKR
notes: also called phagemid antibody 1A12
B3: binds [4].

B4: anti-CD44 human scFv F2-1A6 (scFv, V domains shown)
VH: QVQLVQSGAEVKKPGESLKISCKGSGYSFTSYWIGWVRQMPGKGLEWMGIIYPGDSDTRYSPSFQGQVTISADKSISTAYLQWSSLKASDTAMYYCARRLHGPFYFDYWGQGTLVTVSS
VL: SELTQDPAVSVALGQTVRITCQGDSLRSYYASWYQQKPGQAPLLVIYGKNIRPSGIPDRFSGSSSGNTASLTITGAQAEDEADYYCNSRDSSGNHVVFGGGTKLTVLG
notes: soluble scFv with C-terminal (His)6 tag in the immunoprecipitation; also called anti-CD44 phage F2-1A6
B4: binds [5].

B5: anti-EphA2 human scFv 2D6 (scFv, V domains shown)
VH: QVQLQESGGGLVQPGGSLRLSCAASGFTFSSYAMSWVRQAPGKGLDWVSIIYNGDNTYYADSVKGRFTISRDNSKNSLYLQMNSLRAEDTAVYYCARWSGTSYDYWGQGTLVTVSS
VL: SELTQDPAVSVALGQTVRITCQGDSLRSYYASWYQQKPGQAPLLVIYGENNRPSGIPDRFSGSSSGNTASLTITGAQAEDEADYYCHSRDSSGTHLRVFGGGTKVTVLG
notes: scFv; soluble scFv with C-terminal (His)6 tag (pUC119mycHis) in the immunoprecipitation; also called anti-EphA2 phage antibody 2D6; PhAb-EphA2
For B5, the “fold recovery of phage against recovery from yeast displaying an irrelevant scFv (Y-CON)” value [6] was greater than 10000 fold, the “PhAb Output/Input” value [7] was 0.06 ratio of output/input phage and the “PhAb Output/Input” value [8] was 1e-06 ratio of output/input phage.

B6: anti-EphA2 human scFv D2-1B1 (scFv, V domains shown)
VH: QVQLQESGGGVVQPGRSLRLSCAASGFTFSSYGMHWVRQAPGKGLEWVAVISYDGSNKYYADSVKGRFTISRDNSKNTLYLQMNSLRAEDTAVYYCAKVIAGGAYYGSADYWGQGTLVTVSS
VL: SELTQDPAVSVALGQTVKITCQGDSLRTYYASWYQQKPGQAPVLVIYGENSRPSGIPDRFSGSSSGNTASLTITGAQAEDEADYYCHSRDSSGTHLRVFGGGTKLTVLG
B6: binds [2]; binds [3].

B7: anti-EphA2 human scFv D2-1A7 (scFv, V domains shown)
VH: QVQLQQSGGGVVQPGRSLRLSCAASGFTFSSYAMHWVRQAPGKGLEWVAVISYDGSNKYYADSVKGRFTISRDNSKNTLYLQMNSLRAEDTAVYYCARASVGATGPFDIWGQGTMVTVSS
VL: SELTQDPAVSVALGQTVSITCQGDSLRSYYASWYQQKPGQAPLLVIYGENNRPSGIPDRFSGSSSGNTASLTITGAQAEDEADYYCNSRDSSGTHLTVFGGGTKLTVLG
notes: soluble scFv with C-terminal (His)6 tag in the immunoprecipitation; also called anti-EphA2 phage D2-1A7
B7: binds [2]; binds [3].

B8: E8F11 (scFv)
scFv: QVQLQQSGGGLVQPGGSLRLSCAASGFTFSSYAMSWVRQAPVKGLEWVSAISGSGGSTYYADSVKGRFTISRDNSKNTLYLQMNSLRIEDTAVYYCGRHLSSGSSVDYWGQGTLVTVSSGGGGSGGGGSGGGGSSELTQPPSASGSPGQSVTISCTGTSSDVGGYNYVSWYQQRPGYAPKLMIYDVSNRPSGVSNRFSGSKSGNSASLDISGLQSEDEADYYCAAWDDSLREFLFGTGTKVTVLG
notes: also called fd phage antibody E8F11
B8: binds [9].

B9: recombinant mouse Ephrin A1 with human Fc fusion protein (R&D Systems) (Fc fusion, UniProt P52793 19-182, looked up)
chain: DRHIVFWNSSNPKFREEDYTVHVQLNDYLDIICPHYEDDSVADAAMERYTLYMVEHQEYVACQPQSKDQVRWNCNRPSAKHGPEKLSEKFQRFTPFILGKEFKEGHSYYYISKPIYHQESQCLKLKVTVNGKITHNPQAHVNPQEKRLQADDPEVQVLHSIGYS
notes: Bought reagent; also called rEphrinA1-human Fc fusion protein; not shown: human Fc
B9 was tested, and the “fold difference between the IC50 of ephrin A1 against D2-1A7 and against D2-1A9” value [10] was 9 fold.

B10: E8H7 (scFv)
scFv: QVQLQESGGGLVQPGGSLRLSCSASGFTFSSYAMHWVRQAPGKGLEYVSAISSNGGSTYYADSVKGRFTISRDNSKNTLYLQMSSLRAEDTAVYYCVARLEWLPLAWDYWGQGTLVTVSSGGGGSGGGGSGGGGSSELTQDPAVSVALGQTVRITCQGDSLRSYYASWYQQKPGQAPVLVIYGKNNRPSGIPDRFSGSSSGNTASLTITGAQAEDEADYYCNSRDSSGNHKVFGGGTKLTVLG
notes: also called fd phage antibody E8H7
B10: binds [9].

— US20130209481A1 (University of California, published 2013)
